The target of assay [1] is β-barrel assembly machinery (BAM), five components BamA-E, inserted in nanodiscs (E. coli, UniProt P0A940 21-810; P77774 20-392; P0A903 25-344; P0AC02 20-245; P0A937 20-113). As to the kind of experiment: cryo-EM structure; MBP-EspP (3.6 μM, from urea) folded in vitro overnight into BAM nanodiscs (1.8 μM) with SurA (25.2 μM) in 1x TBS with 1 M urea, then SEC (Superdex 200 Increase); 7.0 Å map. Particulars: both partners purified.

In assay [2] the target is BamA (subunit of E. coli BAM) (E. coli, UniProt P0A940 21-810). The description is as above. Particulars: both partners purified.

B1: MBP-EspP (residues 748–1300 of EspP) with an N-terminal 6xHis tag (domain or fragment)
chain: SGMFSTSDISISGNLSMTGNPDKDNKFEPSIYLNDASYLLTDDSARLVAKNKASVVGDIHSTKSASIMFGHDESDLSQLSDRTSKGLALGLLGGFDVSYRGSVNAPSASATMNNTWWQLTGDSALKTLKSTNSMVYFTDSANNKKFHTLTVDELATSNSAYAMRTNLSESDKLEVKKHLSGENNILLVDFLQKPTPEKQLNIELVSAPKDTNENVFKASKQTIGFSDVTPVITTRETDDKITWSLTGYNTVANKEATRNAAALFSVDYKAFLNEVNNLNKRMGDLRDINGEAGAWARIMSGTGSASGGFSDNYTHVQVGVDKKHELDGLDLFTGFTVTHTDSSASADVFSGKTKSVGAGLYASAMFDSGAYIDLIGKYVHHDNEYTATFAGLGTRDYSTHSWYAGAEAGYRYHVTEDAWIEPQAELVYGSVSGKQFAWKDQGMHLSMKDKDYNPLIGRTGVDVGKSFSGKDWKVTARAGLGYQFDLLANGETVLRDASGEKRIKGEKDSRMLMSVGLNAEIRDNVRFGLEFEKSAFGKYNVDNAVNANFRYSF
notes: also called MBP-EspP substrate
Turning to B1, the binding result in assay [1] and in assay [2] was “binds” throughout.

The values above are taken from paper PMC8655018 (Nature Communications, 2021).
